Key:
Endogenous PPP2CB = biological target: T1, Endogenous PPP2CB (human (endogenous in HEK 293), UniProt P62714 1-309); test: co-IP; endogenous PPP2CB or NAPA immunoprecipitated with its antibody and protein A agarose from HEK AC5/D2L cell lysate (0.5% C12E10, 150 mM NaCl, pH 7.5); AC activity measured in the immunoprecipitate with activated Gαs and FSK; cells under vehicle conditions (PPP2CB) or treated overnight with quinpirole (NAPA); conditions: partners not purified
T1 construct: protein phosphatase 2A catalytic subunit beta, endogenous in HEK 293 cells; also called protein phosphatase 2A (PP2A) catalytic subunit; source: endogenous, HEK AC5/D2L cell lysate
T1 sequence (P62714 whole entry): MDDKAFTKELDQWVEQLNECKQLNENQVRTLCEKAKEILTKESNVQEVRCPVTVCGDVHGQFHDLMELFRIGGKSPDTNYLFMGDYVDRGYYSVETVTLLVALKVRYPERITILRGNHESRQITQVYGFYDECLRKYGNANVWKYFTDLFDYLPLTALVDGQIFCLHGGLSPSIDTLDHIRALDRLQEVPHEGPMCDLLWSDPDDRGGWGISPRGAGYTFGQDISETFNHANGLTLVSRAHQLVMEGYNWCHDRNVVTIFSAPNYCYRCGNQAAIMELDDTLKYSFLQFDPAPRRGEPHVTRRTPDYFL

Endogenous NAPA = biological target: T2, Endogenous NAPA (human (endogenous in HEK 293), UniProt P54920 1-295); test: as above; conditions: partners not purified
T2 construct: NSF attachment protein alpha, endogenous in HEK 293 cells; also called NSF attachment protein alpha; source: endogenous, HEK AC5/D2L cell lysate
T2 sequence (looked up): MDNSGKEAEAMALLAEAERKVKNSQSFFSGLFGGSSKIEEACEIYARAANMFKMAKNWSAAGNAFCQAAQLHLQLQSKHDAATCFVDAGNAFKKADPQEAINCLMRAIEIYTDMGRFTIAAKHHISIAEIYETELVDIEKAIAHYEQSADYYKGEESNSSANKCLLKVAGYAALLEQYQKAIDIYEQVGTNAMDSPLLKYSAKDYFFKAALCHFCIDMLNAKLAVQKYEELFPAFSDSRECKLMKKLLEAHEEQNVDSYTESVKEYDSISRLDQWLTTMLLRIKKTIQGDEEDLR

B1: human AC type 5 (in HEK-AC5/D2L cells) (enzyme)
chain: not shown
notes: adenylyl cyclase type 5 (AC5), human; Found in the immunoprecipitates by its adenylyl cyclase activity, not by a blot; also called adenylyl cyclase type 5; source: HEK 293 cells stably expressing human D2L and human AC5 (HEK-AC5/D2L), in lysate
Endogenous PPP2CB
  fold AC activity in the immunoprecipitate against the control: 4 fold
Endogenous NAPA
  fold AC activity in the immunoprecipitate against the vehicle-treated group: 4.5 fold

Reference: PMC6912275, “Identification of Novel Adenylyl Cyclase 5 (AC5) Signaling Networks in D1 and D2 Medium Spiny Neurons using Bimolecular Fluorescence Complementation Screening” (Cells, 2019)
